Source: publication PMC10148881, “Recognition of an Ala-rich C-degron by the E3 ligase Pirh2” (Nature Communications, 2023)
Substitutions are numbered along the chain they refer to. Names may count otherwise.

B1: WT Pirh2 S155D (protein)
chain: MAATAREDGASGQERGQRGCEHYDRGCLLKAPCCDKLYTCRLCHDNNEDHQLDRFKVKEVQCINCEKIQHAQQTCEECSTLFGEYYCDICHLFDKDKKQYHCENCGICRIGPKEDFFHCLKCNLCLAMNLQGRHKCIENVSRQNCPICLEDIHTDRVVAHVLPCGHLLHRTCYEEMLKEGYRCPLCMHS
B2: WT Pirh2 Q99A (protein)
chain: B1 chain with Q99A, D155S
B3: WT Pirh2 R54A (protein)
chain: B1 chain with R54A, D155S
B4: WT Pirh2 D94A (protein)
chain: B1 chain with D94A, D155S
B5: WT Pirh2 A159D (protein)
chain: B1 chain with D155S, A159D

Tests used:
Pirh2 R54A (human) = Pirh2 R54A (human) (UniProt Q96PM5); assay: ITC; peptides (0.6–1.0 mM) titrated into the cell with 180–220 μM protein at 16 °C; 20 mM Tris-HCl pH 7.5, 150 mM NaCl, 10 μM Zn2+; one-site binding model
Pirh2 D94A (human) = Pirh2 D94A (human) (UniProt Q96PM5); assay: as above
[1] = target: Pirh2 with Ala159 substituted with aspartic acid (human) (UniProt Q96PM5); assay: as above
Pirh2 Q99A (human) = Pirh2 Q99A (human) (UniProt Q96PM5); assay: as above
[2] = target: Pirh2 with Ser155 substituted with aspartic acid (human) (UniProt Q96PM5); assay: as above
[3] = target: T1, Ala6/C-degron peptide (sequence: …); assay: ITC; conditions: chain shown with the change
T1 chain: YKTSAAAAAA

Binder	Kd [3] [µM]	other results
YKTSAAAAAA [Ala6/C-degron peptide (sequence: …)]	–	fold decrease in binding affinity against wild-type Pirh2 (Pirh2 R54A (human)): > 6 fold; fold decrease in binding affinity against wild-type Pirh2 (Pirh2 D94A (human)): > 6 fold; fold decrease in binding affinity against wild-type Pirh2 [1]: 14 fold; fold decrease in binding affinity against wild-type Pirh2 (Pirh2 Q99A (human)): > 6 fold; fold decrease in binding affinity against wild-type Pirh2 [2]: 9 fold
B1	4.5	–
B2	3.5	–
B3	> 100	–
B4	3	–
B5	7.1	–
